The results in this text go back to paper PMC13250567, “U1 snRNP and RNA polymerase II interaction is predominantly mediated by Prp40 rather than U1-70K in yeast” (Nucleic Acids Research, 2026).

Common to all, as to conditions: both partners purified
For assay [1], the target named is T1, yeast RNA polymerase II, purified (CBP tag on RPB3) (yeast, UniProt P04050 1-1733; P08518 1-1224; P16370 1-318; P20433 1-221; P20434 1-215; P20435 …).
T1 construct: RPB1, largest subunit of yeast pol II, wild type with its CTD (26 heptapeptide repeats); RPB2 subunit of yeast pol II; RPB3 subunit of yeast pol II, TAP-tagged (CBP-TEV-protein A); CBP is left after TEV cleavage; RPB4 subunit of yeast pol II; RPB5 subunit of yeast pol II; RPB6 subunit of yeast pol II; RPB7 subunit of yeast pol II; RPB8 subunit of yeast pol II; RPB9 subunit of yeast pol II; RPB10 …
Nature of the assay: pull-down; GST fusion proteins on glutathione-Sepharose incubated with 1 μM purified pol II, 1.5 h, 4 °C; cleaved off with PreScission protease; Western blot with 8WG16 (RPB1) and anti-CBP.

The target in assay [2] is T1, yeast RNA polymerase II, purified (CBP …). Nature of the assay: pull-down; protein A-tagged protein on IgG resin incubated with 0.4 μM purified pol II in 20 mM Tris–HCl pH 8.0, 150 mM NaCl, 0.5 mM DTT, 1.5 h, 4 °C; Western blot with 8WG16 (RPB1) and anti-CBP (RPB3-CBP). A general note: In western blotting, separated proteins are transferred to a membrane and probed.
For assay [3] the target is unchanged. Nature of the assay: cross-linking; purified pol II and Prp40 FF4-6 at ~1:1.5 molar ratio in 20 mM HEPES pH 7.5, 150 mM NaCl, 1 mM MgCl2, 0.5 mM TCEP; 1 mM DSSO or 2 mM SDA, 1 h, 4 °C; LC-MS/MS.

B1: GST-fused Prp40 FF4 (351–415) (domain or fragment, S. cerevisiae, UniProt P33203 351-415, looked up)
chain: NYTRDRIARDNFKSLLREVPIKIKANTRWSDIYPHIKSDPRFLHMLGRNGSSCLDLFLDFVDEQR
notes: yeast Prp40 residues 351–415 (FF4); also called GST-FF4; source: E. coli (pGEX-6p-1), purified as GST fusion protein; not shown: GST, N-terminal, kept
With B1, the binding result in assay [1] is listed as “binds”.

B2: GST-fused Prp40 FF1 (134–189) (domain or fragment, S. cerevisiae, UniProt P33203 134-189, looked up)
chain: EAEKEFITMLKENQVDSTWSFSRIISELGTRDPRYWMVDDDPLWKKEMFEKYLSNR
notes: yeast Prp40 residues 134–189 (FF1); also called GST-FF1; source: E. coli (pGEX-6p-1), purified as GST fusion protein; not shown: GST, N-terminal, kept
As to B2, in assay [1], the binding result is listed as “binds”.

B3: protein A-tagged Prp40 (full length) (natural protein, S. cerevisiae, UniProt P33203 1-583, looked up)
chain: MSIWKEAKDASGRIYYYNTLTKKSTWEKPKELISQEELLLRENGWKAAKTADGKVYYYNPTTRETSWTIPAFEKKVEPIAEQKHDTVSHAQVNGNRIALTAGEKQEPGRTINEEESQYANNSKLLNVRRRTKEEAEKEFITMLKENQVDSTWSFSRIISELGTRDPRYWMVDDDPLWKKEMFEKYLSNRSADQLLKEHNETSKFKEAFQKMLQNNSHIKYYTRWPTAKRLIADEPIYKHSVVNEKTKRQTFQDYIDTLIDTQKESKKKLKTQALKELREYLNGIITTSSSETFITWQQLLNHYVFDKSKRYMANRHFKVLTHEDVLNEYLKIVNTIENDLQNKLNELRLRNYTRDRIARDNFKSLLREVPIKIKANTRWSDIYPHIKSDPRFLHMLGRNGSSCLDLFLDFVDEQRMYIFAQRSIAQQTLIDQNFEWNDADSDEITKQNIEKVLENDRKFDKVDKEDISLIVDGLIKQRNEKIQQKLQNERRILEQKKHYFWLLLQRTYTKTGKPKPSTWDLASKELGESLEYKALGDEDNIRRQIFEDFKPESSAPTAESATANLTLTASKKRHLTPAVELDY
notes: yeast Prp40, full length, 583 residues; A TEV site lies between protein A and Prp40; also called ProtA-Prp40; source: yeast BCY123 (pRS414/GPD-protA-TEV-PRP40), purified on IgG resin; not shown: protein A, N-terminal, kept
Take B3: in assay [2], the binding result is “binds”.

B4: GST-fused Prp40 FF2 (204–269) (domain or fragment, S. cerevisiae, UniProt P33203 204-269, looked up)
chain: FKEAFQKMLQNNSHIKYYTRWPTAKRLIADEPIYKHSVVNEKTKRQTFQDYIDTLIDTQKESKKKL
notes: yeast Prp40 residues 204–269 (FF2); also called GST-FF2; source: E. coli (pGEX-6p-1), purified as GST fusion protein; not shown: GST, N-terminal, kept
Regarding B4, the binding result in assay [1] was “binds”.

B5: Prp40 FF4-6 (351–552) (domain or fragment, S. cerevisiae, UniProt P33203 351-552, looked up)
chain: NYTRDRIARDNFKSLLREVPIKIKANTRWSDIYPHIKSDPRFLHMLGRNGSSCLDLFLDFVDEQRMYIFAQRSIAQQTLIDQNFEWNDADSDEITKQNIEKVLENDRKFDKVDKEDISLIVDGLIKQRNEKIQQKLQNERRILEQKKHYFWLLLQRTYTKTGKPKPSTWDLASKELGESLEYKALGDEDNIRRQIFEDFKPE
notes: yeast Prp40 residues 351–552 (FF4 to FF6); also called Prp40 FF4-6 protein; source: E. coli (pGEX-6p-1), purified
For B5, the binding result in assay [3] is recorded as “binds”.

B6: GST-fused Prp40 FF6 ext (488–583) (domain or fragment, S. cerevisiae, UniProt P33203 488-583, looked up)
chain: NERRILEQKKHYFWLLLQRTYTKTGKPKPSTWDLASKELGESLEYKALGDEDNIRRQIFEDFKPESSAPTAESATANLTLTASKKRHLTPAVELDY
notes: yeast Prp40 residues 488–583 (FF6 and the extension downstream of it, to the C-terminus); also called 6 extension; FF6 extension; source: E. coli (pGEX-6p-1), purified as GST fusion protein; not shown: GST, N-terminal, kept
For the molecule B6, in assay [1], the binding result is on record as “binds”.

B7: GST-fused Prp40 FF3 (270–335) (domain or fragment, S. cerevisiae, UniProt P33203 270-335, looked up)
chain: KTQALKELREYLNGIITTSSSETFITWQQLLNHYVFDKSKRYMANRHFKVLTHEDVLNEYLKIVNT
notes: yeast Prp40 residues 270–335 (FF3); also called GST-FF3; source: E. coli (pGEX-6p-1), purified as GST fusion protein; not shown: GST, N-terminal, kept
Consider B7, for which, in assay [1], the binding result is reported as “binds”.
